Measured values taken from US11021687B2, “Production of differentiated enteroendocrine cells and insulin producing cells” (Massachusetts Institute of Technology, priority 2016, dated 2021).

Assays:
Type in all cases: cell-based, mouse
intestinal stem cells [1] = assay: mRNA expression (qPCR) of ChgA and other lineage markers in differentiated intestinal stem cells; conditions: Noggin in step 2
From the text: “mRNA ChgA Expression Assay” refers to an assay used to determine the relative ChgA mRNA expression level in a cell population. For example, the assay can determine ChgA mRNA expression level of a differentiated cell population following treatment with agents being tested, as compared to an untested population of post-natal stem cells. In an example of an mRNA ChgA Expression Assay, the cells were collected and the RNA is extracted from the cells using an RNA extraction kit (such as RNeasy Mini kit, Qiagen). The ChgA expression level is then assessed by Quantitative real-time PCR using a one-step qPCR kit (such as QuantiTech Probe PCR kit, Qiagen) and ChgA primers and probes (such as commercially available Taqman probe for mouse ChgA, Life Technologies).
(§1) Organoids or differentiated cells were harvested and RNA was extracted using RNeasy Micro Kit (Qiagen) according to the manufacturer's instruction. Quantitative real-time PCR was performed with QuantiTect Probe PCR kit (Qiagen) using commercially available primers and TaqMan probes (Life Technologies).
Cells were then cultured with EGF, Noggin, and DAPT (END), as well as small molecules. After 2-3 days of differentiation, the cells lysed and ChgA expression was measured by qRT-PCR.
Small molecules were further validated using a 24-well plate culture and the differentiation system. […]

intestinal stem cells [2] = assay: Ngn3 mRNA expression during EEC differentiation; conditions: 2 days
Protocol: “Ngn3 Assay” as used herein is an assay used to determine the extent of expression of Ngn3 in cells, such as cells subjected to a differentiation protocol. In an exemplary Ngn3 Assay, RNA is isolated from cells that have been cultured according to a differentiation protocol, and quantitative real-time PCR is performed using commercially available primers and probes (such as Taqman probes) to determine an extent of Ngn3 expression in the cells.
as §1
There has been prior speculation that Ngn3 positive secretory progenitors differentiate to EECs (Genes Dev. 2002).

[3] = system: gastrointestinal stem cells; assay: Insulin / Nkx6.1 mRNA expression (qPCR), 3-stage conversion to insulin producing cells; conditions: added in Stage 1, combined with RepSox
From the text: “mRNA Insulin Expression Assay” refers to an assay used to determine the relative insulin mRNA expression level of a cell population. For example, the assay can determine the insulin mRNA level expressed in a cell population treated to increase the expression of insulin in the cells, as compared to an untreated population of cells. In an exemplary mRNA Insulin Expression Assay, the cells were collected and the RNA is extracted from the cells using an RNA extraction kit (such as RNeasy Mini kit, Qiagen). The insulin expression level is then assessed by Quantitative real-time PCR using a one-step qPCR kit (such as QuantiTech Probe PCR kit, Qiagen) and Ins1 or Ins2 primers and probes (such as the commercially available TaqMan probe for mouse Ins1 and Ins2, Life Technologies). The relative insulin mRNA expression can be determined relative to a baseline or other marker, such as Hprt mRNA expression level or other baseline marker.
as §1, with “Technologies). […]” for “Technologies).”

B1: Noggin: growth factor (protein, UniProt Q13253 28-232, looked up)
Noggin: QHYLHIRPAPSDNLPLVDLIEHPDPIFDPKEKDLNETLLRSLLGGHYDPGFMATSPPEDRPGGGGGAAGGAEDLAELDQLLRQRPSGAMPSEIKGLEFSEGLAQGKKQRLSKKLRRKLQMWLWSQTFCPVLYAWNDLGSRFWPRYVKVGSCFSKRSCSVPEGMVCKPSKSVHLTVLRWRCQRRGGQRCGWIPIQYPIISECKCSC
In the case of B1, the “effect on EEC differentiation” value (intestinal stem cells [1]) is reported as “marginal”.

B2: R-spondin1: Wnt activator, a protein belonging to the R-Spondin family (protein, UniProt Q2MKA7 21-263, looked up)
R-spondin-1: SRGIKGKRQRRISAEGSQACAKGCELCSEVNGCLKCSPKLFILLERNDIRQVGVCLPSCPPGYFDARNPDMNKCIKCKIEHCEACFSHNFCTKCKEGLYLHKGRCYPACPEGSSAANGTMECSSPAQCEMSEWSPWGPCSKKQQLCGFRRGSEERTRRVLHAPVGDHAACSDTKETRRCTVRRVPCPEGQKRRKGGQGRRENANRNLARKESKEAGAGSRRRKGQQQQQQQGTVGPLTSAGPA
B2 was tested, and the “Ngn3 expression on removal of R-spondin1” value (intestinal stem cells [2]) was “strong reduction”.

B3: FGF10: growth factor added in Stage 1 (protein, UniProt O15520 38-208, looked up)
Fibroblast growth factor 10: QALGQDMVSPEATNSSSSSFSSPSSAGRHVRSYNHLQGDVRWRKLFSFTKYFLKIEKNGKVSGTKKENCPYSILEITSVEIGVVAVKAINSNYYLAMNKKGKLYGSKEFNNDCKLKERIEENGYNTYASFNWQHNGRQMYVALNGKGAPRRGQKTRRKNTSAHFLPMVVHS
In the case of B3, the Insulin expression [3] is reported as “further increased”.
